Patent US10617749B1, “Composition of matter and methods for alteration of dendritic cell metabolism to augment cancer vaccine efficacy” (Duke University, priority 2016, dated 2020)
Entries after “also recorded” stand apart in the source; their conditions may differ.

Tests used:
[1] = tested on: DC-induced CD4+ FoxP3+ Tregs; assay: In vitro Treg assay; format: cell-based, mouse; conditions: for DC-mediated Treg differentiation in vitro: pre-treated DCs co-cultured with naïve CD4+ T cells
Procedure: In vivo Treg assay. DCs (C57, H-2^b) were pre-treated for 48 hours and delivered by intradermal injection into the footpad of Foxp3-mRFP mice. Draining inguinal and popliteal lymph nodes were resected 5 days later and analyzed for CD4^+ Foxp3^+ Tregs. In vitro Treg assay, DCs (Balb/c, H-2^d) were pre-treated for either 24 or 48 hrs, and re-plated at a 1:3 DC:T-cell ratio with purified naïve Foxp3-mRFP(H-2^b) CD4^+ Tcells. These co-cultures were incubated for 6 days and quantitated for CD4^+ FoxP3^+ Tregs by flow cytometry.
(§1) Murine bone marrow-derived DCs (BMDCs) were harvested and differentiated as previously described and purified using CD11c microbeads (Miltenyi Biotec) according to manufacturer's protocol. DC purity was monitored by flow cytometry and consistently found to be >95% CD11c+F4/80-. BRAFV600EPTEN−/−-Wnt5aKD and BRAFV600EPTEN−/−-NTC cell lines were generated and cultured as previously described. DC2.4, a murine dendritic cell line was kindly provided by Dr. Kenneth L. Rock (University of Massachusetts Medical School), and cultured as previously described. DC2.4β-cateninKD, DC2.4-CPT1AKD, and DC2.4-NTC stable cell lines were generated using a β-catenin-targeted, CPT1A-targeted, or control shRNA-expressing lentivirus followed by puromycin selection. DCs were treated with Wnt3a (100 ng/mL), Wnt5a (200 ng/mL), LPS (1 μg/mL), 1-MT, 2DG (1 mM), or ETO (100 µM) vs vehicle control either for 24 or 48 hrs prior to their use in both in vitro and in vivo experiments.

[2] = tested on: bone marrow-derived DCs (BMDCs); assay: DC oxygen consumption rate (OCR) / OXPHOS, extracellular flux analysis; format: cell-based, murine; conditions: BMDCs treated with the agent alone vs untreated
Procedure: (§2) DC energy metabolism was measured using the XF^e24 extracellular flux analyzer (Seahorse Bioscience), with the glycolysis stress test kit and the mitochondrial stress test kit as previously described (Everts et al., 2014; Zhao and Klimecki, 2015).
as §1

[3] = tested on: bone marrow-derived DCs (BMDCs); assay: DC glycolysis, extracellular acidification rate (ECAR); format: cell-based, murine; conditions: with or without LPS
Procedure: as §2, §1

[4] = tested on: bone marrow-derived DCs (BMDCs); assay: Extracellular lactate assay; format: cell-based, murine; conditions: BMDC culture media 0-48 hours
Procedure: L-Lactate levels were measured by lactate dehydrogenase conversion of L-lactate+NAD^+ to pyruvate+NADH following treatment with […] (Pesce et al., 1975). Lactate standards and samples were read at NADH specific absorbance 340 nm.

[5] = tested on: human monocyte-derived DC; assay: PPARγ and CPT1A Western blot in human monocyte-derived DCs; format: cell-based
From the text: (§3) Primary antibodies including CPT1A (Cell signaling), PPAR-γ (Santa Cruz Biotechnology), β-catenin, β-actin (Millipore), p-AMPK(T172)/AMPK (Cell signaling), p-AKT(T308)/Akt (Cell Signaling) were used at 1:1000. Secondary antibodies including goat anti-rabbit IgG-HRP (Millipore) and goat anti-mouse IgG-HRP (Millipore) were used at 1:5000. Cells were lysed in Laemmli sample buffer after treatment and subjected to SDS-polyacrylamide gel electrophoresis and immunoblot analysis. For immunoprecipitation, cells were lysed in radio immunoprecipitation assay (RIPA) buffer [10 mM sodium phosphate (pH 8.0), 150 mM NaCl, 1% Triton X-100, 1% sodium deoxycholate, and 0.1% SDS in the presence of 1 mM DTT, 1 mM phenylmethylsulfonylfluoride, and a protease inhibitor cocktail (Sigma)], precleared with protein A beads, and then incubated with 1 μg of antibody against β-catenin or isotype control IgG with protein A-agarose beads on a rotator overnight at 4° C. After 3 washes with RIPA buffer, immunoprecipitated complexes were eluted in sample buffer by boiling and subjected to immunoblot analysis. Immunoblots were visualized by chemiluminescence substrate (ThermoFisher) and imaged by a ChemiDoc XRSplus system (BioRad).
(§4) Human Monocyte-derived Dendritic Cells were generated as previously described.

[6] = tested on: BMDCs; assay: Immunoblot of p-AMPK(T172) and p-AKT(T308) in BMDCs; format: cell-based, murine; conditions: Wnt5a 200 ng/mL
From the text: All data representative of 3 independent experiments.
as §3

[7] = tested on: β-catenin-PPAR-γ complex; assay: β-catenin co-immunoprecipitation in primary DCs; format: cell-based, murine
From the text: as §3

[8] = tested on: murine DCs; assay: qrt-PCR / ELISA gene and cytokine expression in murine DCs; format: cell-based; conditions: for PPAR-γ and CPT1A expression: murine primary DCs; for expression of key glycolytic enzymes (phosphofructokinase, hexokinase, pyruvate kinase): primary DCs
Procedure: Total RNA was isolated by RNeasy Plus Mini Kit(Qiagen). RNA(500 ng) was used in cDNA Synthesis (iScript, BioRad). Quantification of mRNA for genes involved in PPARγ signaling was performed using Mouse PrimePCR PPAR Array according to the manufacturer's protocol (BioRad). Real-time PCR was performed using an ABI7500 Real-Time PCR system (Life Technologies). Data analysis utilized the PrimePCR Analysis Software (BioRad). Conventional qPCR was performed using validated primers (Table 1) and SsoAdvanced Universal SYBR Green Super mix (BioRad) or Taqman probes (Applied Biosystems) for heme synthesis enzymes.
Murine IL-6 (eBioscience) and IL-12p40 (Becton Dickinson) ELISAs were performed according to manufacture's protocol.

[9] = tested on: human monocyte-derived DCs; assay: OCR analysis of human monocyte-derived DCs; format: cell-based; conditions: human monocyte-derived DCs, Wnt5a 48 hours
Procedure: Human DCs were differentiated from harvested peripheral blood mononuclear cells and pre-treated with Wnt5a 48 hours prior to OCR analysis. Short-term incubation with ETO was performed prior to analysis.
as §2, §4

[10] = tested on: DC IDO; assay: IDO enzymatic assay (kynurenine HPLC); format: cell-based, mouse; conditions: purified DC cultures, Wnt5a or Wnt5a+ETO
Procedure: DC IDO enzyme activity was measured by the conversion of L-tryptophan to L-kynurenine in conditioned media by HPLC (Pallotta et al., 2011). Intracellular hemin levels were measured using a colorimetric assay kit (BioVision).

[11] = tested on: OT-1 CD8+ T cells; assay: T cell proliferation assay; format: cell-based, mouse; conditions: SIINFEKL-loaded BMDCs co-incubated with OT-1 splenocytes
Procedure: Splenocytes of OT-1 mice (H-2^b) were isolated and stained with CellTrace Violet (ThermoFisher). Preconditioned DCs were loaded with ovalbumin peptide SIINFEKL, and co-cultured at a DC:splenocyte ratio of 40,000:120,000 cells for 72 hrs. CD8+ T cell proliferation was measured by the dilution of Cell Trace Violet dye by flow cytometry.

[12] = tested on: Dendritic Cells; assay: BODIPY and fatty acid uptake assay; format: cell-based, murine; conditions: TF2-C12 uptake, BODIPY
Procedure: Dendritic Cells were stained in 0.5 μg/ml BODIPY 493/503 in PBS for 15 min to determine neutral lipid content (Herber et al., 2010). Fatty acid uptake measurement in DCs were performed using a dodecanoic acid fluorescent TF2-C12 fatty acid (Sigma) according to the manufacturer's protocol.

[13] = tested on: DCs; assay: DC ATP generation; format: cell-based; conditions: data not shown
[14] = tested on: DC intracellular PpIX; assay: PpIX flow cytometry analysis; format: cell-based, mouse; conditions: 48 hours treatment, then 1 mM δ-ALA 4 hrs
Procedure: Dendritic cells were terminally incubated in the presence of 1 mM δ-aminolevulinic acid (ALA) for 4 hrs. Intracellular PpIX was analyzed by flow cytometry as previously described (Hryhorenko et al., 1998).

Cn1cc(CC(N)C(=O)O)c2ccccc21 (stereo not drawn) [1-MT]
DC-dependent Treg differentiation promoted by melanoma-derived conditioned media ([1]; DCs with BRAFV600E-PTEN−/− conditioned media): only modestly suppressed

O=CC[C@@H](O)[C@H](O)[C@H](O)CO [2-DG, 2-deoxyglucose]
DC-mediated Treg differentiation in vitro [1]: enhancement of DC-dependent Treg expansion; also recorded: enhanced Treg differentiation

NC(=O)c1ncn([C@@H]2O[C@H](CO)[C@@H](O)[C@H]2O)c1N [AICAR]
DC OXPHOS (OCR) [2]: suppresses OXPHOS

Oc1nc(-c2ccc(C(F)(F)F)cc2)nc2c1CSCC2 [XAV939]
DC glycolysis (ECAR) [3]: promote DC glycolysis

CC[C@H]1/C=C/C=C/C[C@@H](C)[C@H](O)[C@@](C)(O)C(=O)[C@@H](C)[C@H](O)[C@@H](C)C(=O)[C@@H](C)[C@H](O)[C@@H](C)/C=C/C(=O)O[C@@H]2[C@H](C)[C@H](CC1)O[C@]1(CC[C@H](C)[C@H](C[C@@H](C)O)O1)[C@H]2C [oligomycin]
DC-mediated Treg differentiation in vitro [1]: potently suppressed Wnt5a induction of DC-mediated Treg differentiation; also recorded: almost complete elimination of these Treg populations

B1: Wnt5a: Wnt ligand used to treat DCs (200 ng/mL) (protein, UniProt P41221 62-380, looked up)
Protein Wnt-5a: IIGAQPLCSQLAGLSQGQKKLCHLYQDHMQYIGEGAKTGIKECQYQFRHRRWNCSTVDNTSVFGRVMQIGSRETAFTYAVSAAGVVNAMSRACREGELSTCGCSRAARPKDLPRDWLWGGCGDNIDYGYRFAKEFVDARERERIHAKGSYESARILMNLHNNEAGRRTVYNLADVACKCHGVSGSCSLKTCWLQLADFRKVGDALKEKYDSAAAMRLNSRGKLVQVNSRFNSPTTQDLVYIDPSPDYCVRNESTGSLGTQGRLCNKTSEGMDGCELMCCGRGYDQFKTVQTERCHCKFHWCCYVKCKKCTEIVDQFVCK
DC glycolysis (ECAR) [3]: inhibits DC glycolysis; also recorded: inhibit LPS-mediated DC glycolysis; also recorded: eliminates the glycolytic reserve of DCs while also significantly suppressing the lipopolysaccharide (LPS)-induced glycolytic surge; also recorded: suppresses LPS-induced DC glycolysis | lactate production [4]: suppress lactate production | PPAR-γ and CPT1A expression [5]: induces the upregulation of PPAR-γ and CPT1A | AMPK activation (Thr-172 phospho-AMPK) ([6]; 24 and 48 hrs): suppress AMPK activation | DC Akt Thr-308 phosphorylation ([6]; 48 hrs): no significant impact | PPAR-γ binding to β-catenin [7]: PPAR-γ to bind to β-catenin upon Wnt5a stimulation | IL-6 and IL-12 expression in primary DCs ([8]; BMDCs, qrt-PCR): suppresses IL-6 and IL-12 expression in primary DCs | expression of ALAS1 and further PpIX/heme synthesis enzymes ([8]; DCs, qrt-PCR): upregulate the expression of ALAS1 as well as several additional enzymes involved in PpIX synthesis | PPAR-γ and CPT1A expression [8]: directly induce CPT1a expression in a PPARγ-dependent manner; also recorded: induces the upregulation of PPAR-γ and CPT1A | expression of key glycolytic enzymes (phosphofructokinase, hexokinase, pyruvate kinase) ([8]; qrt-PCR): suppresses the expression of key glycolytic enzymes; also recorded: suppress the expression of the key glycolytic enzymes | DC OXPHOS (OCR) [2]: strongly promoting DC OXPHOS; also recorded: promotes DC oxidative phosphorylation (OXPHOS) | OCR [9]: induces OCR in human monocyte-derived DCs | DC IDO enzymatic activity (kynurenine) [10]: capable of promoting DC IDO enzymatic activity | DC-mediated antigen-specific CD8+ T cell proliferation [11]: suppresses LPS-induced DC-mediated antigen-specific T cell proliferation | DC fatty acid uptake and lipid stores [12]: enhance DC fatty acid uptake and lipid stores | DC ATP generation [13]: no net effect on DC ATP generation | DC levels of PpIX [14]: enhances DC levels of the PpIX prosthetic group in a manner that depends on the induction of FAO

B2: Wnt3a: canonical Wnt ligand used to treat DCs (100 ng/mL) (protein, UniProt P56704 19-352, looked up)
Protein Wnt-3a: SYPIWWSLAVGPQYSSLGSQPILCASIPGLVPKQLRFCRNYVEIMPSVAEGIKIGIQECQHQFRGRRWNCTTVHDSLAIFGPVLDKATRESAFVHAIASAGVAFAVTRSCAEGTAAICGCSSRHQGSPGKGWKWGGCSEDIEFGGMVSREFADARENRPDARSAMNRHNNEAGRQAIASHMHLKCKCHGLSGSCEVKTCWWSQPDFRAIGDFLKDKYDSASEMVVEKHRESRGWVETLRPRYTYFKVPTERDLVYYEASPNFCEPNPETGSFGTRDRTCNVSSHGIDGCDLLCCGRGHNARAERRREKCRCVFHWCCYVSCQECTRVYDVHTCK
DC glycolysis (ECAR) [3]: no changes in either DC OXPHOS or glycosis | PPAR-γ and CPT1A expression [8]: failed to induce the expression of both PPAR-γ and CPT1A in DCs | expression of key glycolytic enzymes (phosphofructokinase, hexokinase, pyruvate kinase) ([8]; qrt-PCR): promotes the expression of key glycolytic enzymes | DC OXPHOS (OCR) [2]: no changes in either DC OXPHOS or glycosis | DC levels of PpIX [14]: failed to enhance PpIX synthesis in DCs
